For the assay, the target named is transportin 1 (TNPO1) (human (endogenous in HeLa)) (UniProt Q92973). In words: proximity ligation.
Sequence of UniProt Q92973 (Q92973 whole entry): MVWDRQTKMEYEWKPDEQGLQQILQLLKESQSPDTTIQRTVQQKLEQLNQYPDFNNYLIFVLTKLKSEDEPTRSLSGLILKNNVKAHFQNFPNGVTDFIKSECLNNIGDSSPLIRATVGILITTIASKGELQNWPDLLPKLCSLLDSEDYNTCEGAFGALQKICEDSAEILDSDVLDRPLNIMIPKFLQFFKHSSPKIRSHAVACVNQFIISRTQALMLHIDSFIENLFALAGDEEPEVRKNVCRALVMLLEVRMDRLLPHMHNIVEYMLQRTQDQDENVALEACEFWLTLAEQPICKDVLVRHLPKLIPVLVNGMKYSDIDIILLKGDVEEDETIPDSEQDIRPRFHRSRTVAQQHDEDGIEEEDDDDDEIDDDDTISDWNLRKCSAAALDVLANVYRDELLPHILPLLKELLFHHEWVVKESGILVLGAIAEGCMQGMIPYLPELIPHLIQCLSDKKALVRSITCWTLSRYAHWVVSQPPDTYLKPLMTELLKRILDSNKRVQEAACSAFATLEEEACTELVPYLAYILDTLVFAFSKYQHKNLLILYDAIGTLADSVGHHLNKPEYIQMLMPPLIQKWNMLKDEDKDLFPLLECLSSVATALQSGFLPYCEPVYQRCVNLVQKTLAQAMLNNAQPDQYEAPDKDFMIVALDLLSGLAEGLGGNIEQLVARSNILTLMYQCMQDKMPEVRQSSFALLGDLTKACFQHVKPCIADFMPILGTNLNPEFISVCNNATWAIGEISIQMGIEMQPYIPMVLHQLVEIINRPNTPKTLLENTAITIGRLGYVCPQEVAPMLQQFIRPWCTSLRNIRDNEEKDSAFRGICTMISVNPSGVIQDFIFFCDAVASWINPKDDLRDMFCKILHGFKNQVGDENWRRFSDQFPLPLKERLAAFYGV

“HIV-1 Rev (regulator of expression of virion proteins), HA-tagged (from UniProt P04618 1-116) (natural protein)” had a PLA puncta per cell (puncta per cell) of 26.
